Measurements from patent US5382658A, “Stability-enhanced variants of parathyroid hormone” (Allelix Biopharmaceuticals Inc., priority 1992, dated 1995).
Where two headings read alike, the source gives them in different places.

B1: [His^25 ]hPTH (protein, UniProt P01270 32-115, looked up, variant R25H)
Parathyroid hormone: SVSEIQLMHNLGKHLNSMERVEWLHKKLQDVHNFVALGAPLAPRDAGSQRPRKKEDNVLVESHEKSLGEADKADVNVLTKAKSQ
B2: [His^25 His^26 Leu^27 ]hPTH (protein, UniProt P01270 32-115, looked up, variant R25H K26H K27L)
Parathyroid hormone: SVSEIQLMHNLGKHLNSMERVEWLHHLLQDVHNFVALGAPLAPRDAGSQRPRKKEDNVLVESHEKSLGEADKADVNVLTKAKSQ

Tests used:
[1] = test system: adenylate cyclase activity in UMR-106 rat osteosarcoma cells; assay: UMR-106 based adenylate cyclase assay (cAMP formation); type: cell-based; conditions: for EC50: UMR-106 cells, untreated samples, read-out: EC50, concentration effective for half-maximal stimulation of adenylate cyclase activity; for potency relative to hPTH (in words): UMR-106 adenylate cyclase assay
Text: In the present specification, PTH activity is defined in the context of the osteosarcoma-based adenylate cyclase assay employed conventionally in the art. Briefly, this assay provides an in vitro determination of the extent to which PTH stimulates adenylate cyclase activity in rat osteosarcoma cells of the `UMR` lineage, and thus provides an indication of PTH effects on bone tissue in vivo. Protocols for conducting the assay have been described by Rodan et al, 1983, J. Clin. Invest., 72:1511 (in which the osteosaracoma cells of the ROS lineage are employed) and by Rabbani et al, 1988, Endocrinol., 123:2709 (which employs the line UMR-106). […] The term EC50 refers to the concentration of PTH or variant effective for half-maximal stimulation of adenylate cyclase activity.
Thawed or fresh samples of human PTH(1-84) and of PTH variants obtained as described above were then evaluated for biological activity using a UMR-106 based adenylate cyclase assay and the protocol as described by Rabbini et al, 1988, Endocrinology, 123:2709, which is incorporated herein by reference. As noted, rat osteosarcoma cells of the UMR line are stimulated by PTH to produce adenylate cyclase, an enzyme which catalyzes intracellular conversion of ATP to its cylic monophosphate analogue, cAMP. In this assay therefore, PTH activity is determined by assaying radiometrically the formation of cAMP in PTH-stimulated UMR cells. The results of the assays, expressed in terms of EC50 (concentration of PTH or variant effective for half-maximal stimulation of adenylate cyclase activity), are presented in the table below: […]

trypsin [2] = test system: trypsin
Method: (§1) The stability of PTH and variants to degradation by trypsin was also quantified by SDS polyacrylamide gel electrophoresis (SDS-PAGE). Incubations of PTH or variant with trypsin were established. For example, a sufficient aliquot of lyophilized PTH or variant was first solubilized for 20 minutes at room temperature with 10 mM acetic acid (final concentration of 1 mg/mL) and then diluted about 20-fold with Tris buffer. About 10 μg of PTH (or variant) was removed for a preincubation, "time zero" time point, and was lyophilized. The incubations were initiated by addition of an appropriate amount of freshly prepared trypsin solution in Tris buffer for a final trypsin to PTH (or variant) ratio of 1:500 (w/w). The samples were incubated at room temperature. Aliquots of the appropriate volume corresponding to an initial amount of undigested PTH (or variant) of 10 μg were removed at specific times (2, 5, 20, 60, 240 minutes). These were quenched immediately by adding an equal weight of SBTI to trypsin (either 2 μL of SBTI in Tris at a concentration of 10 μg/mL or 0.02 μg SBTI was added to the time point containing 0.02 μg trypsin and 10 μg initial equivalent amount of PTH or variant in Tris buffer). Samples quenched at the various time points were then lyophilized.
(§2) Lyophilized samples containing 10 μg of intact and/or fragmented PTH or variant were solubilized in gel sample buffer and subjected to electrophoresis using suitable conditions to separate intact PTH from the smaller fragments (16.5% acrylamide gel, BioRad Mini-Protean II apparatus, 90 minutes, 100 mV). The gels were fixed and stained for protein with Coomassie Blue. The amount of intact, full length PTH present in each of the various samples (preincubation sample and time point samples) was quantified using a gel scanning method, which measures the quantity of stain and therefore the amount of protein scanned in each band. Initially, a standard curve was constructed by loading various amounts of PTH in each lane (2,2, 4, 6, 8, 10 μg per lane), scanning each lane, and then constructing a standard curve of the quantity of stain at the mobility of PTH as a function of the amount of PTH loaded per lane. With the gel scanning system, the quantity of stain was proportional to the amount of PTH loaded in the range of 1 to 10 μg per lane. Using this standard curve, the amount of intact PTH present in each sample was calculated from the quantity of stain at the mobility of intact PTH.
(§3) The amount of PTH (or variant) in the preincubation sample was termed Po (scanned amount corresponding to approximately 10 μg intact PTH or variant) and the amount at a given time, t, was defined as Pt.

[3] = Trypsin sensitivity: trypsin or mock incubation followed by UMR-106 adenylate cyclase assay; conditions: UMR-based adenylate cyclase assay after trypsin incubation under the exemplified conditions; read-out: EC50 following trypsin incubation
Method: PTH variants having an "improved stability in the presence of trypsin" are degraded by trypsin at a rate that is slower than a similarly treated native PTH control. An assay suitable for identifying a reduced tryptic digestion rate entails a two step procedure, in which a PTH variant and a native PTH control are separately incubated with trypsin for a defined period, and are then assayed for activity in the osteosarcoma-based assay just described. Protocols suitable for assaying trypsin sensitivity are described in the literature and are outlined in the examples herein.
To measure the sensitivity of a compound (native PTH or variants) to digestion with trypsin, duplicate incubations were established for each compound in either the presence of trypsin ("Trypsin Incubation") or the absence of trypsin ("Mock Incubation"). For example, a lyophilized aliquot of PTH (or variant) was solubilized for 20 minutes at room temperature in 10 mM acetic acid at a final concentration of 1 mg/mL (50 μg PTH or variant plus 50 μL 10 mM acetic acid). […] The appearance of the cleavage product was monitored as a function of time at 253 nm. […]
Parallel trypsin and mock incubations were established as follows. […] Dose-response curves were generated and the relevant EC50 values were calculated. […]

ovariectomized rat = assay: Ovariectomized rat model of osteoporosis, total skeletal calcium scan; type: in vivo; conditions: subcutaneous, once daily for 28 days, human PTH 150 μg/kg, variant dosed at 25 and 150 μg/kg, dose of the reported result not stated
Method: The P2 variant was also evaluated in vivo for its effect on skeletal tissue, in an ovariectomized rat model of osteoporosis. Formulations of the P2 variants were first prepared by reconstituting the P2 variant from lyophilized powder in 0.1M acetic acid, then diluting to 10 mM acetic acid by addition of normal saline vehicle and 2% (v/v) heat-inactivated rat serum, to generate a stock solution containing the variant at a concentration of about 150 μg/ml. The P2 formulation was then injected subcutaneously at the neck region, in selected volumes representing dosage sizes of 25 μg/kg and 150 μg/kg (8 rats/each dose). A third group of rats received human PTH at a dose of 150 μg/kg and a fourth group received vehicle alone. Treatment regimen consisted of single dose administration once daily for 28 days.
After treatment, the rats were sacrificed and evaluated by total skeletal calcium scan. Relative to rats receiving vehicle alone, the whole body calcium scanning results indicated an improvement in rats receiving human PTH (5.8% increase), and a still further improvement (9.6% increase) in rats receiving the [His^25 His^26 Leu^27 ] variant. It is believed that enhanced effects of this variant result from its greater half-life in vivo i.e. its resistant to serum-borne trypsin and/or other enzymes which otherwise degrade and/or inactivate the native hormone.

trypsin [4] = assay: Trypsin degradation time course quantified by SDS-PAGE gel scanning
Method: as §1, §2, §3

Molecule | EC50 [1] [nM] | Half-Life (from SDS-PAGE analysis) (trypsin [2]) [min] | EC50 [3] [nM] | increase in whole body calcium relative to rats receiving vehicle alone (ovariectomized rat) [%] | potency relative to hPTH (in words) [1] | Half-Life (from SDS-PAGE analysis) (trypsin [4]; Trypsin:PTH = 1:500 (w/w), room temperature, time when Pt/Po = 0.5) [min] | initial material remaining (intact) (trypsin [4]; after 240 minutes, trypsin:PTH 1:500 (w/w)) | resistance to proteolysis by trypsin (in words) (trypsin [4]; trypsin to PTH ratio of 1:500 (w/w))
human PTH(1-84) [hPTH, reference compound] | 1 | 25 ± 5 | ~12 | 5.8 | – | – | – | –
B1 | 2 | 27 ± 7 | – | – | substantially equipotent | – | – | –
B2 | 1.7 | – | – | 9.6 | substantially equipotent | > 240 | more than 60% | almost completely resistant to proteolysis
